Key:
[1] = in vitro; settings: 10% FBS (serum)
Experimental: The radiochemical purity of [^68Ga]-WL12 was determined by thin-layer chromatography (ITLC) using glass microfiber chromatography paper impregnated with a silica gel as the stationary phase and acetonitrile (50%) as the mobile phase. For the evaluation of in vitro stability, [^68Ga]-WL12 was incubated at 37 °C with saline and 10% serum, respectively, for 60 min. Aliquots (3.7 kBq) of each radiolabeled ligand were taken and analyzed by ITLC.

[2] = In vitro stability in saline (ITLC); format: physicochemical; settings: 37 °C, read-out ITLC (silica gel paper, 50% acetonitrile), mean ± SD
[3] = test system: PANC02 cells; test: Cellular uptake assay, PANC02 cells; format: cell-based, murine; settings: 1.5 kBq tracer, 45 min incubation with constant shaking, γ-counter, mean ± SD
Experimental: (§1) Murine pancreatic cancer cell PANC02 and human glioma cancer cell U87MG were obtained from Tongpai Biotechnology Co., LTD. The cells were cultured in DMEM medium containing 10% fetal bovine serum (FBS) and 1% penicillin–streptomycin. The cells grew adherent when cultured at 37 °C, 5% CO2, and appropriate humidity.
(§2) PANC02 and U87MG cells incubated to a confluence of approximately 80% in a 10 cm Petri dish were digested, centrifugated, and separated to several EP tubes. Then, the cells were incubated with 1.5 kBq ^68Ga-WL12 in a state of constant shaking for 5, 15, 30, and 45 min. At each time point, precipitation of cells was collected after centrifugating and washing by PBS. The radioactivity for each sample was measured by a γ-counter and calculated as the percentage.

[4] = test system: U87MG cells; test: Cellular uptake assay, U87MG cells; format: cell-based, human; settings: 1.5 kBq tracer, 45 min incubation with constant shaking, γ-counter, mean ± SD
Experimental: as §1, §2

[5] = in vivo; settings: female, C57BL/6, mouse, iv, 3.7 MBq, total radioactivity
Experimental: C57BL/6 female mice were obtained from Shanghai Lingchang Biotechnology Co., LTD, Shanghai, China. The animals were kept in the Animal Experiment Center of Shanghai Changhai Hospital of SPF level. Then, 1 × 10^6 PANC02 cells in 0.1 mL mixture of PBS and Matrigel at a 1:1 ratio was inoculated subcutaneous into the right trunk of the mice. When the tumor reached an average volume of 300–500 mm^3, in vivo experiments of tracer metabolism were performed.
All imaging acquisition was performed on a clinical PET-CT scanner (Biograph64, Siemens Healthcare, Erlangen, Germany). Before imaging, the model mice were injected with 50 μL sodium pentobarbital (3%) into the abdominal cavity for anesthesia. […] For quantification of tracer uptake, 3D regions of interest (ROI) were drawn on the muscle, liver, and tumor.

SMILES	remaining at 1 h [1] [%]	RCP after 60 min incubation in saline [2] [%]	specific binding rate in PANC02 [3] [%]	specific binding rate in U87MG [4] [%]	SUV at 20 min [5] [SUV]	SUV at 1.5 h [5] [SUV]	tissue to tissue ratio at 1.5 h ([5]; tumor-to-liver (T/L) ratio based on SUVmax)	tissue to tissue ratio at 1.5 h ([5]; tumor-to-muscle (T/M) ratio based on SUVmax)	SUV at 1 h [5] [SUV]
CCCC[C@H]1C(=O)N(C)[C@@H](CCCC)C(=O)N[C@@H](CCCNC(=O)CCc2ccc(O)c(CN(CCN(CC(=O)O)Cc3cc(CCC(=O)O)ccc3O)CC(=O)O)c2)C(=O)N[C@H](C(=O)NCC(N)=O)CSCC(=O)N[C@@H](Cc2ccc(O)cc2)C(=O)N(C)[C@@H](C)C(=O)N[C@@H](CC(N)=O)C(=O)N2CCC[C@H]2C(=O)N[C@@H](Cc2c[nH]cn2)C(=O)N[C@@H](CC(C)C)C(=O)N2C[C@H](O)C[C@H]2C(=O)N[C@@H](Cc2c[nH]c3ccccc23)C(=O)N[C@@H](CO)C(=O)N[C@@H](Cc2cn(C)c3ccccc23)C(=O)N1C [^68Ga-HBED-CC-WL12, metal not drawn]	56.5 ± 2.3	92.5 ± 1.5	31.2 ± 9.4	37.7 ± 2.4	0.37	0.38 ± 0.02	0.45 ± 0.03	> 2	
N=C(N)NCCC[C@@H]1NC(=O)[C@H](CCCCNC(=O)CC[C@H](NC(=O)CN2CCN(CC(=O)O)CCN(CC(=O)O)CCN(CC(=O)O)CC2)C(=O)NCCCC[C@@H]2NC(=O)[C@@H](Cc3ccccc3)NC(=O)[C@H](CC(=O)O)NC(=O)CNC(=O)[C@H](CCCNC(=N)N)NC2=O)NC(=O)[C@@H](Cc2ccccc2)NC(=O)[C@H](CC(=O)O)NC(=O)CNC1=O [^68Ga-RGD, metal not drawn, reference compound]									< 0.05
